Test results from PMC3410803.

System: anti-MPT64 antibody (purified rabbit antibody to recombinant M. tuberculosis H37Rv MPT64) (rabbit)
Assay: ELISA
Details: 20 mM Hepes pH 7.35, 120 mM KCl, 1 mM CaCl2, 1 mM MgCl2 ([…]

## GGGAGCTCAGAATAAACGCTCAAAAACGCTCAAGAGGCCCGGATCTTCGACATGAGGCCCGGATC [MPT64-A1]
  binding signal: 1.62 OD450
